According to article PMC9482650, “Quantitative fragmentomics allow affinity mapping of interactomes” (Nature Communications, 2022):

How the values were obtained:
Assay in all cases: holdup assay
Parameters in all cases: key: below the threshold = too weak to quantify, mostly under pKd 3.1 to 4
[1] = target: T1, APBA2_2, Q99767
T1 sequence (Q99767 654-744, limits assumed, looked up): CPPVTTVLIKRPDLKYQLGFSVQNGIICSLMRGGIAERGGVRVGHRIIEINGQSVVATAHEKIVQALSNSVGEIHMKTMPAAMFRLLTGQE

[2] = target: DLG1_1, Q12959
[3] = target: DLG4_1, P78352
[4] = target: DLG4_3, P78352
[5] = target: FRMPD2_1, Q68DX3
[6] = target: FRMPD2_2, Q68DX3
[7] = target: T2, GRIP1_3, Q9Y3R0
T2 sequence (Q9Y3R0 247-346, limits assumed, looked up): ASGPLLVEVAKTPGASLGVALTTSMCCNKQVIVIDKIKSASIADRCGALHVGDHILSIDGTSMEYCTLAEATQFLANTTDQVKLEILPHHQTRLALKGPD

[8] = target: GRIP2_5, Q9C0E4
[9] = target: HTRA1, Q92743
[10] = target: T3, HTRA4, P83105
T3 sequence (P83105 378-476, limits assumed, looked up): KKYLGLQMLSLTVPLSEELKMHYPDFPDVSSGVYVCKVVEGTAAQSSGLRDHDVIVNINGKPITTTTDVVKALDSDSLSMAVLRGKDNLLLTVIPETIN

[11] = target: IL16_1, Q14005
[12] = target: LDB3, O75112
[13] = target: T4, LNX2_3, Q8N448
T4 sequence (Q8N448 463-564, limits assumed, looked up): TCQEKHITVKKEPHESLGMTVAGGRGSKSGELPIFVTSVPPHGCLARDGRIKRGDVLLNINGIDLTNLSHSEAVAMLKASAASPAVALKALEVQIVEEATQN

[14] = target: T5, LRRC7, Q96NW7
T5 sequence (Q96NW7 1440-1537, limits assumed, looked up): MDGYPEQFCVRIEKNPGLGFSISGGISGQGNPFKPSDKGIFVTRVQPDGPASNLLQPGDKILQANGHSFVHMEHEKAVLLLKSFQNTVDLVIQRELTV

[15] = target: MAGI2_2, Q86UL8
[16] = target: MAGI2_3, Q86UL8
[17] = target: MAST1, Q9Y2H9
[18] = target: T6, MPDZ_5, O75970
T6 sequence (O75970 695-796, limits assumed, looked up): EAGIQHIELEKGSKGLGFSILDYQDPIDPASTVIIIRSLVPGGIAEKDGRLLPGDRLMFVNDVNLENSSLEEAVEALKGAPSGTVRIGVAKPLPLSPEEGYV

[19] = target: T7, MPP6, Q9NZW5
T7 sequence (Q9NZW5 125-219, limits assumed, looked up): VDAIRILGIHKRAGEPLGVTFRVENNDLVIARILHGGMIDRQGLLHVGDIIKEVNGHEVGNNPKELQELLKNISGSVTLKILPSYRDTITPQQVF

[20] = target: NHERF2_2, Q15599
[21] = target: PDLIM1, O00151
[22] = target: PICK1, Q9NRD5
[23] = target: PTPN3, P26045
[24] = target: T8, RAPGEF6, Q8TEU7
T8 sequence (Q8TEU7 525-625, limits assumed, looked up): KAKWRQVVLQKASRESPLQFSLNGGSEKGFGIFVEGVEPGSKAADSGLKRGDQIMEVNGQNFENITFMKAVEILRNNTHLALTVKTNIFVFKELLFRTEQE

[25] = target: T9, SIPA1L2, Q9P2F8
T9 sequence (Q9P2F8 945-1036, limits assumed, looked up): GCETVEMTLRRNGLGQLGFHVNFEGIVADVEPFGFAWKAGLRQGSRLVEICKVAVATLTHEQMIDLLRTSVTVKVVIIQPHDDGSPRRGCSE

[26] = target: T10, SNTB1, Q13884
T10 sequence (Q13884 107-205, limits assumed, looked up): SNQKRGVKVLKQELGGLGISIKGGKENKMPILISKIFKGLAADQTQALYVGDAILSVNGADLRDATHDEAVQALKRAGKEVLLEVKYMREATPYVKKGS

[27] = target: T11, TIAM2, Q8IVF5
T11 sequence (Q8IVF5 885-986, limits assumed, looked up): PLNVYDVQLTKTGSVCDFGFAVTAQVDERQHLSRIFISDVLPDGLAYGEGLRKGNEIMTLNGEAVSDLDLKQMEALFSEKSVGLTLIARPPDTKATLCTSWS

[28] = plain residues with an end cap or a label only (N-terminal biotin on a linker: ado-ado)
[29] = modified: phospho on T at position -2 from the C-terminal residue
[30] = modified: phospho on T at position -1 from the C-terminal residue

Sequence of LDB3, O75112 (O75112 1-94): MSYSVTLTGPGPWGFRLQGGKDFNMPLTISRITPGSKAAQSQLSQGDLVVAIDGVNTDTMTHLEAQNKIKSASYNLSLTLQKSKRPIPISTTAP
Sequence of PTPN3, P26045 (P26045 505-587): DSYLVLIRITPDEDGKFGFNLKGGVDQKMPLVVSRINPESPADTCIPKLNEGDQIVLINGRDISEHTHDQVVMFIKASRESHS
Sequence of PICK1, Q9NRD5 (Q9NRD5 17-115): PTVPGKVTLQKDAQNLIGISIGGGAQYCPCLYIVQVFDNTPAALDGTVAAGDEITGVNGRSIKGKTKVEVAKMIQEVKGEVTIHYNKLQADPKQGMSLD
Sequence of MAST1, Q9Y2H9 (Q9Y2H9 962-1065): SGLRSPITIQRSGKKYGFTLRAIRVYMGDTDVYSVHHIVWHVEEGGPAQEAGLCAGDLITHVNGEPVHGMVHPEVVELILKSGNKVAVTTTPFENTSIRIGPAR
Sequence of DLG4_1, P78352 (P78352 62-152): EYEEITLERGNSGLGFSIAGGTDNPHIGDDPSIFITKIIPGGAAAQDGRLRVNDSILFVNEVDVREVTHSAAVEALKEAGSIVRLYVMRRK
Sequence of FRMPD2_1, Q68DX3 (Q68DX3 770-861): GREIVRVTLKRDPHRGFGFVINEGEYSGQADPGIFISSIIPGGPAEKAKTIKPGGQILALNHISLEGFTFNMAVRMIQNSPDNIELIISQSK
Sequence of HTRA1, Q92743 (Q92743 360-477): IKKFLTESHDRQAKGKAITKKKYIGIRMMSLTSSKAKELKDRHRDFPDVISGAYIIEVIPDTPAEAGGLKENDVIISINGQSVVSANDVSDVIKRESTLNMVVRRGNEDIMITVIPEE
Sequence of GRIP2_5, Q9C0E4 (Q9C0E4 544-642): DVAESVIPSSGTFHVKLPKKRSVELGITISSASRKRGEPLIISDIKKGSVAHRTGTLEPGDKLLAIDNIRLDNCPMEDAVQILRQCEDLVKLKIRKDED
Sequence of NHERF2_2, Q15599 (Q15599 142-238): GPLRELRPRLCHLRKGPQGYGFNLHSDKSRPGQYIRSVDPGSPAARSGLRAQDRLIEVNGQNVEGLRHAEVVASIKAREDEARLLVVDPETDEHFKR
Sequence of MAGI2_3, Q86UL8 (Q86UL8 600-682): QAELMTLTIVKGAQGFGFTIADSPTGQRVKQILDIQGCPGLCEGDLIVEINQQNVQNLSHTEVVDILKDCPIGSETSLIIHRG
Sequence of DLG4_3, P78352 (P78352 306-403): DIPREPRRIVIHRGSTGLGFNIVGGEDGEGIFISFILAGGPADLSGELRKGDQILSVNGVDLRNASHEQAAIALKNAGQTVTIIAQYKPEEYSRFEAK
Sequence of IL16_1, Q14005 (Q14005 210-306): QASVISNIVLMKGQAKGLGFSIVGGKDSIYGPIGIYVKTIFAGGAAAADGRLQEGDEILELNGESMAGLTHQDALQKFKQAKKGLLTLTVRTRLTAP
Sequence of MAGI2_2, Q86UL8 (Q86UL8 410-522): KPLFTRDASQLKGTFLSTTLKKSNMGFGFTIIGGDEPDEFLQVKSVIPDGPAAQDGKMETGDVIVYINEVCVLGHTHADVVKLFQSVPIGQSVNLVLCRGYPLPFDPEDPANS
Sequence of PDLIM1, O00151 (O00151 1-87): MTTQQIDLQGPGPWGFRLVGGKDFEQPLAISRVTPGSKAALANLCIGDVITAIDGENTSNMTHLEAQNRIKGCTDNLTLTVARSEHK
Sequence of FRMPD2_2, Q68DX3 (Q68DX3 944-1038): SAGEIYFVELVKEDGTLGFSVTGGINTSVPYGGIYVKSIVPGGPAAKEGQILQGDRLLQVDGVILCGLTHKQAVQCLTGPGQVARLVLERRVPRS

For SMLNRRTTPV [CACNG4, Q9UBN1], the pKd [1, 28] was “below the threshold”, the pKd [2, 28] was 4.42 and the pKd [3, 28] was 4.51. The pKd [4, 28] was 4.85, the pKd [5, 28] was 3.54 and the pKd [6, 28] was 3.55. For the same binder, the pKd [7, 28] was “below the threshold”, the pKd [8, 28] was “below the threshold” and the pKd [9, 28] was 4.36. For the same binder, the pKd [10, 28] was “below the threshold”, the pKd [11, 28] was “below the threshold” and the pKd [12, 28] was “below the threshold”. The pKd [13, 28] was “below the threshold”, the pKd [14, 28] was “below the threshold” and the pKd [15, 28] was 5.03. For the same binder, the pKd [16, 28] was “below the threshold”, the pKd [17, 28] was 4.29 and the pKd [18, 28] was “below the threshold”. For the same binder, the pKd [19, 28] was “below the threshold”, the pKd [20, 28] was “below the threshold” and the pKd [21, 28] was “below the threshold”. The pKd [22, 28] was “below the threshold”, the pKd [23, 28] was 4.54 and the pKd [24, 28] was “below the threshold”. The pKd [25, 28] was “below the threshold”, the pKd [26, 28] was 4.07 and the pKd [27, 28] was “below the threshold”.

In the case of RRVRKLPSTTL [RPS6KA1_-2P, Q15418], the pKd [1, 29] is reported as “below the threshold”, the pKd [2, 29] is reported as 3.58 and the pKd [3, 29] is reported as “below the threshold”. For the same binder, the pKd [4, 29] was “below the threshold”, the pKd [5, 29] was “below the threshold” and the pKd [6, 29] was “below the threshold”. For the same binder, the pKd [7, 29] was “below the threshold”, the pKd [8, 29] was “below the threshold” and the pKd [9, 29] was 3.65. For the same binder, the pKd [10, 29] was “below the threshold”, the pKd [11, 29] was “below the threshold” and the pKd [12, 29] was 3.47. For the same binder, the pKd [13, 29] was “below the threshold”, the pKd [14, 29] was “below the threshold” and the pKd [15, 29] was “below the threshold”. The pKd [16, 29] was “below the threshold”, the pKd [17, 29] was “below the threshold” and the pKd [18, 29] was “below the threshold”. The pKd [19, 29] was “below the threshold”, the pKd [20, 29] was “below the threshold” and the pKd [21, 29] was “below the threshold”. The pKd [22, 29] was “below the threshold”, the pKd [23, 29] was “below the threshold” and the pKd [24, 29] was “below the threshold”. The pKd [25, 29] was “below the threshold”, the pKd [26, 29] was “below the threshold” and the pKd [27, 29] was “below the threshold”.

For LEPAVRSSEL [SH2D3C, Q8N5H7], the pKd [1, 28] was “below the threshold”, the pKd [2, 28] was “below the threshold” and the pKd [3, 28] was “below the threshold”. For the same binder, the pKd [4, 28] was “below the threshold”, the pKd [5, 28] was “below the threshold” and the pKd [6, 28] was “below the threshold”. For the same binder, the pKd [7, 28] was “below the threshold”, the pKd [8, 28] was “below the threshold” and the pKd [9, 28] was “below the threshold”. For the same binder, the pKd [10, 28] was 3.85, the pKd [11, 28] was “below the threshold” and the pKd [12, 28] was “below the threshold”. The pKd [13, 28] was “below the threshold”, the pKd [14, 28] was “below the threshold” and the pKd [15, 28] was “below the threshold”. The pKd [16, 28] was “below the threshold”, the pKd [17, 28] was 4.49 and the pKd [18, 28] was “below the threshold”. The pKd [19, 28] was “below the threshold”, the pKd [20, 28] was 4.29 and the pKd [21, 28] was 3.5. The pKd [22, 28] was “below the threshold”, the pKd [23, 28] was 4.82 and the pKd [24, 28] was “below the threshold”. The pKd [25, 28] was “below the threshold”, the pKd [26, 28] was 4.11 and the pKd [27, 28] was “below the threshold”.

For GQSVDLVFPV [AKIP1, Q9NQ31], the pKd [1, 28] was “below the threshold”, the pKd [2, 28] was “below the threshold” and the pKd [3, 28] was 3.6. The pKd [4, 28] was “below the threshold”, the pKd [5, 28] was “below the threshold” and the pKd [6, 28] was “below the threshold”. For the same binder, the pKd [7, 28] was “below the threshold”, the pKd [8, 28] was “below the threshold” and the pKd [9, 28] was 4.15. For the same binder, the pKd [10, 28] was “below the threshold”, the pKd [11, 28] was “below the threshold” and the pKd [12, 28] was “below the threshold”. For the same binder, the pKd [13, 28] was “below the threshold”, the pKd [14, 28] was “below the threshold” and the pKd [15, 28] was “below the threshold”. The pKd [16, 28] was “below the threshold”, the pKd [17, 28] was 4.1 and the pKd [18, 28] was “below the threshold”. For the same binder, the pKd [19, 28] was “below the threshold”, the pKd [20, 28] was “below the threshold” and the pKd [21, 28] was “below the threshold”. The pKd [22, 28] was “below the threshold”, the pKd [23, 28] was “below the threshold” and the pKd [24, 28] was “below the threshold”. The pKd [25, 28] was “below the threshold”, the pKd [26, 28] was “below the threshold” and the pKd [27, 28] was “below the threshold”.

For RRVRKLPSTTL [RPS6KA1_-1P, Q15418], the pKd [1, 30] was “below the threshold”, the pKd [2, 30] was 3.82 and the pKd [3, 30] was 3.8. The pKd [4, 30] was 3.49, the pKd [5, 30] was 3.33 and the pKd [6, 30] was 3.47. For the same binder, the pKd [7, 30] was 3.34, the pKd [8, 30] was “below the threshold” and the pKd [9, 30] was 4.7. For the same binder, the pKd [10, 30] was 3.48, the pKd [11, 30] was 3.46 and the pKd [12, 30] was 3.62. For the same binder, the pKd [13, 30] was “below the threshold”, the pKd [14, 30] was 3.47 and the pKd [15, 30] was 3.92. For the same binder, the pKd [16, 30] was “below the threshold”, the pKd [17, 30] was 4.5 and the pKd [18, 30] was 3.5. For the same binder, the pKd [19, 30] was “below the threshold”, the pKd [20, 30] was 4.02 and the pKd [21, 30] was 4. The pKd [22, 30] was 3.49, the pKd [23, 30] was 4.48 and the pKd [24, 30] was 3.38. The pKd [25, 30] was “below the threshold”, the pKd [26, 30] was 3.91 and the pKd [27, 30] was 3.41.
